Assay [1] concerns the target T1, FMC63 scFv-His tag recombinant protein.
T1 construct: Expressed in 293T cells, purified on Ni-NTA; also called FMC63 scFv recombinant protein; CD19 CAR scFv recombinant protein
Put plainly: ELISA, FMC63 scFv coated. The procedure:
(§1) Blocking was then performed with PBST (PBS containing 0.05% Tween 20) containing 5% BSA at 300 μL per well. […] The plate was washed with PBST and then incubated at room temperature for 30 minutes with goat anti-rabbit IgG polyclonal antibody coupled with horseradish peroxidase (HRP).
In general terms: In an ELISA, binding on a coated surface is turned into a signal by an enzyme label.

Assay [2] has as its target T2, CD19 CAR containing FMC63 scFv, on the cell surface (CD19 CAR-T cells, CD19 CAR-293T cells).
T2 construct: Chimeric antigen receptor brought into T cells or 293T cells by lentivirus; also called FMC63 scFv CD19 CAR; CD19 CAR scFv on the cell surface; not shown: hinge, transmembrane and intracellular signalling regions of the CAR
Put plainly: flow cytometry (MFI) on CD19 CAR-293T cells, R19mab titrated; printed beside EC50 = 1.58 nM, which the text gives. On the procedure:
(§2) T cells were infected with CD19 CAR lentivirus or BCMA CAR lentivirus to obtain corresponding CAR-T cells. […] 2×10⁵ cells were suspended in 50 μL FACS buffer. 50 μL antibody solution was then added to 50 μL cell suspension and the mixture was incubated on ice for 30 minutes. The cells were then washed twice with cold FACS buffer. […] Table 1) and the mixture was incubated on ice for 30 minutes, after that the cells were washed twice with cold FACS buffer. The cells were resuspended in 200 μL FACS buffer and detected by flow cytometry.
(§3) CD19 CAR-293T cells were obtained by infecting 293T cells with CD19 CAR lentivirus. […] 2×10⁵ CD19 CAR-293T cells were suspended in 50 μL FACS buffer.

The target in assay [3] is T1, FMC63 scFv-His tag recombinant protein. Nature of the assay: BLI (Fortebio Octet), FMC63 scFv loaded on the sensor, R19mab at 15.6, 7.8, 3.9, 1.95 and 0.975 nM, 1:1 model; the same value stands in rows 1 to 5 of the drawn table (column Kd (M)); the text rounds it to 43 pM. From the text:
(§4) In short, the biosensor was balanced offline in PBS buffer for 600 seconds, and then detected online for 60 seconds to establish a baseline. […] Data Analysis 6.2 evaluation software was used to analyze the data, and a 1:1 combination model was used for kinetic analysis.

Assay [4] shares this target. Put plainly: BLI (Fortebio Octet), FMC63 scFv on the sensor, R19mab 15.6-0.975 nM, 1:1 model.
Text: as §4
Background: BLI is a label-free optical method that tracks binding on a fibre tip over time.

For assay [5], the target named is T2, CD19 CAR containing FMC63 scFv, on the …. Nature of the assay: flow cytometry on CD19 CAR-293T cells. On the procedure: as §2, §3
(In general: Flow cytometry measures light scatter and fluorescence of single cells or particles in a stream.)

Assay [6] addresses T3, FMC63 antibody (murine anti-CD19 monoclonal antibody, Merck & Millipore MAB1794).
T3 construct: Whole mouse monoclonal antibody coated on the ELISA plate; also called CD19 antibody
Put plainly: ELISA, FMC63 antibody coated. On the procedure:
as §1

T1 sequence (scFv, as listed by the source): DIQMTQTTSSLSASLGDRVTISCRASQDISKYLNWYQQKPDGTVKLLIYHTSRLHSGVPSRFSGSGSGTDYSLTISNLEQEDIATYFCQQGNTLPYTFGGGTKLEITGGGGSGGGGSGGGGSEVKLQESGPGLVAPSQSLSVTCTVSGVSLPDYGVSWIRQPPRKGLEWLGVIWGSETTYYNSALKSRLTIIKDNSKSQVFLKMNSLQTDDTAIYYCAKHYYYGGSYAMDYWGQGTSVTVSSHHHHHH
T2 sequence (chain, as listed by the source): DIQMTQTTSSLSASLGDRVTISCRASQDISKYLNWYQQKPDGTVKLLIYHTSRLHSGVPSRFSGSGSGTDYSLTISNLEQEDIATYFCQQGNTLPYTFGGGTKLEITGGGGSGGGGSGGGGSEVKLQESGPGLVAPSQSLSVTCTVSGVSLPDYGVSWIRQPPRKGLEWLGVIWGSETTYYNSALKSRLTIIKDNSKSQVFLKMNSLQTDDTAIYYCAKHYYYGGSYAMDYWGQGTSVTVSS

B1: rabbit monoclonal antibody R19mab against FMC63 scFv (antibody, V domains shown)
VH: QSLEESGGRLVTPGTPLTLTCTVSGIDFRNYGVSWVRQAPGKGLEWIGIFSSSGSTYYATWAKGRFTISKASSTTVDLKMTSLTTEDTATYFCARHPGPTNGWKLWGPGTLVTVSS
VL: DVVMTQTPASVEAPVGGTVTIKCQASQSVSGYCSWYQQKPGQPPKLLIYRASTLESGVPSRFSGSGSGTDFTLTISDLECADAATYYCQSNYNSGSSSSAAAFGGGTEVVVK
notes: Rabbit monoclonal IgG, expressed in 293T cells and purified on Protein A; also called No.0231 (rabbit B cell clone)
For B1, the concentration for a half-maximal effect (EC50) in assay [1] was 0.307 nM; in assay [2], 0.237 µg/mL; in assay [5] it was 1.58 nM; in assay [6] it was 0.253 nM. The values for the Kd in assay [3] and in assay [4] were 0.0431 nM and 0.043 nM, respectively.

A word on the EC50: it is the concentration needed to bring the measured effect to its halfway point. A word on the Kd: it is the constant that tells how readily two partners part at equilibrium.

These data come from patent US20220074937A1 (BIOSWAN LABORATORIES, published 2022).
